Experimental data taken from paper doi:10.1101/480269v2.

Key:
Test in all cases: purified protein
Conditions in all cases: Mg2+ as the activating cation
[1] = substrate: NC(=O)C1=CN([C@@H]2O[C@H](COP(=O)(O)OP(=O)(O)OC[C@H]3O[C@@H](n4cnc5c(N)ncnc54)[C@H](O)[C@@H]3O)[C@@H](O)[C@H]2O)C=CC1
[2] = substrate: NC(=O)c1ccc[n+]([C@@H]2O[C@H](COP(=O)(O)OP(=O)(O)OC[C@H]3O[C@@H](n4cnc5c(N)ncnc54)[C@H](O)[C@@H]3O)[C@@H](O)[C@H]2O)c1
[3] = substrate: NC(=O)c1ccc[n+]([C@@H]2O[C@H](COP(=O)([O-])O)[C@@H](O)[C@H]2O)c1
[4] = substrate: Nc1ncnc2c1ncn2[C@@H]1O[C@H](COP(=O)(O)O)[C@@H](O)[C@H]1O

B1: UshA (Escherichia coli K-12) (protein)
chain: YEQDKTYKITVLHTNDHHGHFWRNEYGEYGLAAQKTLVDGIRKEVAAEGGSVLLLSGGDINTGVPESDLQDAEPDFRGMNLVGYDAMAIGNHEFDNPLTVLRQQEKWAKFPLLSANIYQKSTGERLFKPWALFKRQDLKIAVIGLTTDDTAKIGNPEYFTDIEFRKPADEAKLVIQELQQTEKPDIIIAATHMGHYDNGEHGSNAPGDVEMARALPAGSLAMIVGGHSQDPVCMAAENKKQVDYVPGTPCKPDQQNGIWIVQAHEWGKYVGRADFEFRNGEMKMVNYQLIPVNLKKKVTWEDGKSERVLYTPEIAENQQMISLLSPFQNKGKAQLEVKIGETNGRLEGDRDKVRFVQTNMGRLILAAQMDRTGADFAVMSGGGIRDSIEAGDISYKNVLKVQPFGNVVVYADMTGKEVIDYLTAVAQMKPDSGAYPQFANVSFVAKDGKLNDLKIKGEPVDPAKTYRMATLNFNATGGDGYPRLDNKPGYVNTGFIDAEVLKAYIQKSSPLDVSVYEPKGEVSWQ
Km [1]: 7.0 ± 0.8 µM | kcat [1]: 10.0 ± 0.2 s⁻¹ | Km [2]: 5.3 ± 0.6 µM | kcat [2]: 19.3 ± 0.9 s⁻¹ | Km [3]: 11.1 ± 1.3 µM | kcat [3]: 1492 ± 31 s⁻¹ | Km [4]: 1.2 ± 0.1 µM | kcat [4]: 405 ± 4 s⁻¹
